Results reported in patent US20080318297A1, “Inhibition of Infiltration, and Cell Killing Agent” (priority 2004, published 2008).

Assays:
[1] = system: sialyl Lewis x; test: Sialyl Lewis x expression in NALL1 cells by flow cytometer (CSLEX1 antibody); type: cell-based, human
Description: Fluorescence intensity and distribution of cell count of a sialyl Lewis x sugar chain antigen which is a major selectin ligand sugar chain were confirmed in flow cytometer by using a CSLEX antibody (antibody specifically recognizing the sialyl Lewis x structure; product of Becton, Dickinson and Company) to which a tandem dye APC-Cy7 was bound in accordance with a method described in J. Biol. Chem., 273, 41, 26779-26789 (1998). Rightward shifting in the histogram means an increase in the fluorescence intensity, i.e. an amount of expression of sialyl Lewis x.
These siRNAs were expressed in cells to confirm the effects. For introduction of siRNA into cells, a lentivirus system (product of Invitrogen Corporation) which is able to gene introduction into blood cells at high efficiency and an expression vector for lentivirus pLL3.7 (Nat. Genet., 33, 401-406 (2003)) were used. In the pLL3.7 vector, it is possible to introduce a sense/antisense siRNA sequence including a hair-pin structure downstream of a U6 promoter. […] Therefore, expression of the CD43 antigen and sialyl Lewis x and the selectin binding ability of the cells in which the GFP expression was observed, i.e. of the cells in which siRNA was expressed, were analyzed by using the antibody MEM59 (product of Monosan) for CD43, sialyl Lewis x antibody CSLEX1, and human chimera-Fc-Ig-E- or P-selectin with the use of a flow cytometer. […]

[2] = system: P-selectin; test: P-selectin binding ability of NALL1 cells by flow cytometer (human chimera-Fc-Ig-P-selectin); type: cell-based
Description: (§1) Likewise, a binding ability to E-selectin and P-selectin was confirmed in flow cytometer through fluorescence intensity and distribution of cell count measured by using a recombinant protein (human chimera-Fc-Ig-E-selectin or human chimera-Fc-Ig-P-selectin; product of R & D Systems) in accordance with the method descried in Blood, 104, 3091-3096 (2004). […] Rightward shifting in the histogram means an increase in the fluorescence intensity, i.e. binding ability to selectin.
(§2) These siRNAs were expressed in cells to confirm the effects. […] Therefore, expression of the CD43 antigen and sialyl Lewis x and the selectin binding ability of the cells in which the GFP expression was observed, i.e. of the cells in which siRNA was expressed, were analyzed by using the antibody MEM59 (product of Monosan) for CD43, sialyl Lewis x antibody CSLEX1, and human chimera-Fc-Ig-E- or P-selectin with the use of a flow cytometer. […]
(§3) Benzyl-α-N-acetylgalactosamine (Bz-α-GalNAc; product of Sigma-Aldrich Japan, K.K.) which is one of sugar chain synthesis inhibiting agents was added to a culture supernatant of NALL1 cells to detect its binding ability to selectin. […] After adding 4 mM of benzyl-α-N-acetylgalactosamine to the culture supernatant of NALL1 cells, expressions of the CD43 antigen and sialyl Lewis x and binding ability to E- and P-selectin were detected by a flow cytometer after 3 day-culture. […]

[3] = system: E-selectin; test: E-selectin binding ability of NALL1 cells by flow cytometer (human chimera-Fc-Ig-E-selectin); type: cell-based
Description: as §1, §2, §3

[4] = system: CD43 antigen; test: CD43 antigen expression in NALL1 cells by flow cytometer (MEM59 antibody); type: cell-based, human; settings: for CD43 expression: siRNA introduced by lentivirus pLL3.7 vector, GFP positive fraction, vs vacant vector
Description: These siRNAs were expressed in cells to confirm the effects. For introduction of siRNA into cells, a lentivirus system (product of Invitrogen Corporation) which is able to gene introduction into blood cells at high efficiency and an expression vector for lentivirus pLL3.7 (Nat. Genet., 33, 401-406 (2003)) were used. In the pLL3.7 vector, it is possible to introduce a sense/antisense siRNA sequence including a hair-pin structure downstream of a U6 promoter. The pLL3.7 vector expresses Green Fluorescent Protein (GFP) by a CMV promoter at the same time. Accordingly, oligonucleotide including the sense chain, antisense chain, and hair-pin structure of the designed siRNA sequence (CD43-#1 to #5, CD43-$1 to $5; alphabet f at the end of the name indicates the sense chain, and r indicates the antisense chain) was chemically synthesized and then cloned to pLL3.7 vector, followed by introduction into 293 cells together with a vector for virus particle production. After that, siRNA expression lentivirus vector was collected from a supernatant of the culture medium (FIG. 8). Virus infection was caused by co-culture of the virus particles and NALL1 cells to introduce the siRNA into the cells and the siRNA is expressed. GFP was simultaneously expressed in the cells into which the siRNA was introduced by the pLL3.7 vector. Therefore, expression of the CD43 antigen and sialyl Lewis x and the selectin binding ability of the cells in which the GFP expression was observed, i.e. of the cells in which siRNA was expressed, were analyzed by using the antibody MEM59 (product of Monosan) for CD43, sialyl Lewis x antibody CSLEX1, and human chimera-Fc-Ig-E- or P-selectin with the use of a flow cytometer. As a result, in introduction of vacant vector (pLL3.7), a high rate of the CD43 expression was observed irrelevant from GFP positive or negative.
Benzyl-α-N-acetylgalactosamine (Bz-α-GalNAc; product of Sigma-Aldrich Japan, K.K.) which is one of sugar chain synthesis inhibiting agents was added to a culture supernatant of NALL1 cells to detect its binding ability to selectin. Benzyl-α-N-acetylgalactosamine is subject to sugar chain modification like N-acetylgalactosamine added to serine and threonine of a protein when taken into a cell. Therefore, since the original sugar chain modification to a glycoprotein is suppressed by an addition of an excessive amount of benzyl-α-N-acetylgalactosamine, benzyl-α-N-acetylgalactosamine is used as an O-linked sugar chain synthesis inhibiting agent. After adding 4 mM of benzyl-α-N-acetylgalactosamine to the culture supernatant of NALL1 cells, expressions of the CD43 antigen and sialyl Lewis x and binding ability to E- and P-selectin were detected by a flow cytometer after 3 day-culture. […]

[5] = siRNA introduced by lentivirus pLL3.7 vector (FIG. 10)

For CC(=O)N[C@H]1[C@@H](OCc2ccccc2)O[C@H](CO)[C@H](O)[C@@H]1O [benzyl-α-N-acetylgalactosamine, Benzyl-α-N-acetylgalactosamine, reference compound], the “sialyl Lewis x expression” value ([1]; 4 mM, 3 day-culture) was “remarkably reduced”, the “selectin binding ability (P-selectin)” value ([2]; 4 mM, 3 day-culture) was “almost lost” and the “selectin binding ability (E-selectin)” value ([3]; 4 mM, 3 day-culture) was “almost lost”. For the same molecule, the “expression of CD43 antigen” value ([4]; 4 mM, 3 day-culture) was “no change”.

B1: siCD43-#1-pLL3.7: siRNA for CD43 antigen in pLL3.7 lentivirus vector; CD43 sequence gtgaccctaaggccgacag (nucleic acid)
sense: TGTGACCCTAAGGCCGACAGTTCAAGAGACTGTCGGCCTTAGGGTCACTTTTTTC
antisense: TCGAGAAAAAAGTGACCCTAAGGCCGACAGTCTCTTGAACTGTCGGCCTTAGGGTCACA
modifications: shRNA oligos cloned in pLL3.7 lentivector
In the case of B1, the CD43 expression [4] is reported as “significant reduction”.

B2: siCD43-#2-pLL3.7: siRNA for CD43 antigen in pLL3.7 lentivirus vector; CD43 sequence ggccgacagcactggggac (nucleic acid)
sense: TGGCCGACAGCACTGGGGACTTCAAGAGAGTCCCCAGTGCTGTCGGCCTTTTTTC
antisense: TCGAGAAAAAAGGCCGACAGCACTGGGGACTCTCTTGAAGTCCCCAGTGCTGTCGGCCA
modifications: shRNA oligos cloned in pLL3.7 lentivector
In the case of B2, the “sialyl Lewis x expression” value [1, 5] is reported as “remarkable reductions”, the “selectin binding ability (P-selectin)” value [2, 5] is reported as “remarkable reductions” and the “selectin binding ability (E-selectin)” value [3, 5] is reported as “remarkable reductions”. The CD43 expression [4] was “significant reduction”.

B3: siCD43-#5-pLL3.7: siRNA for CD43 antigen in pLL3.7 lentivirus vector; CD43 sequence gcgtaacggggtggtggac (nucleic acid)
sense: TGCGTAACGGGGTGGTGGACTTCAAGAGAGTCCACCACCCCGTTACGCTTTTTTC
antisense: TCGAGAAAAAAGCGTAACGGGGTGGTGGACTCTCTTGAAGTCCACCACCCCGTTACGCA
modifications: shRNA oligos cloned in pLL3.7 lentivector
With B3 the CD43 expression [4] was “significant reduction”.
